Patent US20200181677

Legend:
[1] = tested on: peptide #11 (Optimized PKCβ Sub.), alanine-substituted, in PKCα FRET sensor
[2] = tested on: peptide #14 (PKCα pseudosubstrate), alanine-containing
[3] = tested on: peptide #14, aspartic acid-containing (phosphomimetic)

For human PKCα catalytic domain, the “kinase activity of the 10 nm peptide FRET sensor for the same substrate” value [1] was “the higher affinity peptide sensor (#11) had a much lower activity than the lower affinity peptide sensor (#8)”, the “ATP turnover of the catalytic domain for serine-containing peptide #14 with equimolar competitor peptide” value [2] was “the alanine-substituted peptide was significantly better at inhibiting catalytic activity” and the “basal kinase activity of the sensor (10 nm vs 30 nm ER/K linker) for the same substrate peptide” value [2] was “the sensor with the 30 nm linker had significantly higher activity than the 10 nm linker for the same substrate peptide”. The “ATP turnover of the catalytic domain for serine-containing peptide #14 with equimolar competitor peptide” value [3] was “the alanine-substituted peptide was significantly better at inhibiting catalytic activity”.
